Data reported in the MegaScale stability set (Tsuboyama et al. 2023).

B1: EEHEE_rd4_0647 (parent)
chain: MQVTWGNVTVTFSNPEEAKKYAEKVARKLGGQVELHNGQFRIK

Variants of: B1
Assay: folding stability dG (cDNA display proteolysis); higher = more stable
Settings: PBS, room temperature

Folding stability dG [kcal/mol], by site and new letter:
N14: Q 2.2; S 2.86; G 2.12; E 2.2; T 2.89; I 2.08; D 2.79; V 2.05; A 2.21; K 2.42; M 1.99; R 2.47; W 1.76; L 2.23; H 2.38; F 1.98; P 0.65; Y 1.91
P15: D 1.92; R 2.78; A 2.89; T 2.83; G 2.46; C 3.26; K 2.83; Q 2.7; S 2.79; M 3.03; E 2.54; F 3.41; H 2.88; I 2.99; W 3.08; N 2.29; Y 3.5; L 2.77; V 2.93
A22: E -0.084; G 0.944; F 1.07; H 0.174; I 1.43; C 1.62; M 1.48; L 1.62; K 0.426; D -0.372
S13: C 3.28; L 2.57; K 2.86; N 2.79; M 2.6; D 2.75; E 2.65; Q 2.71; P 2.58; H 2.62; F 2.49; G 2.5; I 2.52; V 2.51; W 2.34; Y 2.38; A 2.8; R 2.81; T 2.83
E17: A 2.93; L 2.84; I 2.66; H 2.7; D 2.92; R 2.62; N 2.47; Y 2.58; G 1.97; M 2.83; S 2.73; T 2.74; F 2.47; P 1.01; V 2.64; C 3.18; W 2.53; Q 2.76; K 2.69
E16: L 2.78; N 2.56; Y 2.77; F 2.71; M 2.76; S 2.68; A 2.78; T 2.75; D 2.79; H 2.7; I 2.81; R 2.55; W 2.75; Q 2.7; G 2.54; P 1.4; C 3.18; V 2.81; K 2.52
T9: L 2.22; V 2.84; F 1.95; W 1.78; Q 1.84; I 2.71; K 2.02; R 2.06; H 1.77; E 1.46; D 0.892; G 0.945; C 3.2; A 1.85; P 0.422; N 1.62; S 2.26; Y 1.85; M 2.15
V10: Q 1.85; F 2.53; I 2.94; M 2.67; P -0.399; E 1.5; G 0.582; H 2.15; W 2.84; T 1.74; C 3.62; S 1.23; A 1.97; Y 2.7; K 2.66; R 2.65; N 1.2; L 2.76; D 0.472
V8: Y 2.84; M 2.68; F 2.81; A 1.89; G 1.49; R 2.5; S 2.01; K 2.57; H 2.8; T 2.64; P 0.417; W 2.79; E 1.92; D 1.33; N 2.51; Q 2.35; I 2.96; L 2.45
N7: M 2.37; I 2.31; S 2.68; R 2.64; G 2.58; F 2.43; D 2.58; L 2.27; Q 2.49; K 2.72; W 2.43; V 2.33; P 2.29; Y 2.54; C 3.66; H 2.64; A 2.39; T 2.67; E 2.39
K19: H 2.34; I 2.42; Y 2.94; S 2.12; Q 2.61; V 2.08; W 2.88; T 1.62; M 2.66; E 2.21; G 1.83; F 2.94; L 3.02; A 2.53; D 0.816; P 0.106; N 1.71
T11: W 3.23; Q 2.53; L 2.62; C 3.51; K 2.49; S 2.73; Y 3.02; D 1.99; A 2.38; G 2.05; E 2.34; I 2.71; N 2.58; H 2.72; P 1.65; R 2.62; V 2.59; M 2.64; F 3
F12: R 0.663; G -0.079; P -0.871; E -0.423; S -0.107; L 1.96; N -0.258; V 0.887; Y 1.28; H 0.464; A 0.449; T 0.01; W 1.18; C 2.49; Q 0.017; M 1.38; I 1.43; K 0.98
W5: P 0.153; A 1.17; F 2.53; C 3.09; Y 2.53; E 0.581; S 0.968; G 0.431; I 2.61; N 1.12; K 0.547; V 2.64; L 2.12; H 2.15; T 1.19; D 1.03; Q 0.719; R 0.966; M 1.83
Y21: Q 0.996; W 2.52; H 1.36; E 0.876; G 0.194; K 0.616; L 1.74; F 3.05; N 0.633; V 1.47; R 0.486; M 1.71; I 1.34; S 0.62; A 1.3; T 0.931; D -0.099; C 2.87; P -0.824
G6: M 2.32; P 0.79; S 2.08; C 3.2; V 1.39; I 1.59; Q 1.99; A 2.25; L 2.49; H 2.48; D 2.86; F 2.55; N 2.38; R 2.21; W 2.76; K 2.1; T 1.3; Y 2.51; E 1.96
T4: Y 2.21; P 0.446; Q 2.49; R 2.76; V 3.15; W 2.11; S 2.81
K20: E 2.73; P 0.849; G 2.13; Y 2.43; F 2.41; W 2.67; Q 2.72; H 2.57; S 2.64; R 2.96; D 2.54; V 2.71; A 2.98; N 2.58; L 2.86; M 2.75; I 2.77; T 2.62
A18: Q 0.42; D -0.206; I 0.86; L 1; C 1.92; T 0.656; W 1.08; S 0.985; R 0.219; P -0.247; K 0.212; H 0.323; F 1.05; M 0.885; Y 0.88; E 0.034; G 1.05; V 0.732; N 0.024
